Values quoted from earlier work in article PMC2921697.

Assays:
[1] = target: Barnase (denatured) (Bacillus amyloliquefaciens) (UniProt P00648); assay: H/D exchange NMR
[2] = target: prion protein (denatured recombinant) (UniProt P04156)

Substance: GroEL (from UniProt P0A6F5)
- Kd [1]: 50 nM

Substance: Hsp60 (from UniProt P10809)
- Kd [2]: 1.5 nM

Substance: SecB (from UniProt P0AG86)
- Kd [1]: 50 nM
